# Test results reported in the FLAb antibody collection (doi:10.1101/2023.12.08.570889).
# Where a chain is given by its changes, count along the chain named.
# B1: unnamed (protein)
# chain 1: EVQLVQSGAEVKKPGESLRISCKGSGYSFSTYWISWVRQMPGKGLEWMGKIYPGDSYTNYSPSFQGQVTISADKSISTAYLQWSSLKASDTAMYYCTRGSGLFDYWGQGTLVTVSS
# chain 2: SYELTQPPSVSVSPGQTASITCSGDNIGDQYAHWYQQKPGQSPVLVIYQDKNRPSGIPERFSGSNSGNTATLTISGTQAMDEADYYCATYTGFGSLAVFGGGTKLTVL
# B2: unnamed (protein)
# chain 1: B1 chain 1 with T97A, S100W, L102V
# chain 2: B1 chain 2
# B3: unnamed (protein)
# chain 1: B1 chain 1 with T97A, S100V, L102I
# chain 2: B1 chain 2
# B4: unnamed (protein)
# chain 1: B1 chain 1 with T97A, S100I, L102I
# chain 2: B1 chain 2
# B5: unnamed (protein)
# chain 1: B1 chain 1 with T97S, S100Y, L102V
# chain 2: B1 chain 2
# B6: unnamed (protein)
# chain 1: B1 chain 1 with T97A, S100I
# chain 2: B1 chain 2
# B7: unnamed (protein)
# chain 1: B1 chain 1 with T97A, S100V
# chain 2: B1 chain 2
# B8: unnamed (protein)
# chain 1: B1 chain 1 with T97A, S100T
# chain 2: B1 chain 2
# B9: unnamed (protein)
# chain 1: B1 chain 1 with S100V, L102I
# chain 2: B1 chain 2
# B10: unnamed (protein)
# chain 1: B1 chain 1 with S100Y, L102V
# chain 2: B1 chain 2
# B11: unnamed (protein)
# chain 1: B1 chain 1 with S100V
# chain 2: B1 chain 2
# B12: unnamed (protein)
# chain 1: B1 chain 1 with S100T
# chain 2: B1 chain 2
# B13: unnamed (protein)
# chain 1: B1 chain 1 with T97A, S100W
# chain 2: B1 chain 2
# B14: unnamed (protein)
# chain 1: B1 chain 1 with T97A, S100W, L102I
# chain 2: B1 chain 2
# B15: unnamed (protein)
# chain 1: B1 chain 1 with T97S, S100Y, L102I
# chain 2: B1 chain 2
# B16: unnamed (protein)
# chain 1: B1 chain 1 with T97A, S100I, L102V
# chain 2: B1 chain 2
# B17: unnamed (protein)
# chain 1: B1 chain 1 with S100T, L102I
# chain 2: B1 chain 2
# B18: unnamed (protein)
# chain 1: B1 chain 1 with T97A, S100H, L102V
# chain 2: B1 chain 2
# B19: unnamed (protein)
# chain 1: B1 chain 1 with S28T, T31S, S100Y, L102I
# chain 2: B1 chain 2
# B20: unnamed (protein)
# chain 1: B1 chain 1 with S28T, T31S, T97A, S100Y
# chain 2: B1 chain 2
# Molecular target: TNFRSF9, Q07011
# Assay: Kd (SPR)
row,Binder,Kd
1,B1,225 nM
2,B2,122 nM
3,B3,158 nM
4,B4,128 nM
5,B5,130 nM
6,B6,175 nM
7,B7,153 nM
8,B8,95.6 nM
9,B9,92.3 nM
10,B10,96.2 nM
11,B11,141 nM
12,B12,142 nM
13,B13,60.3 nM
14,B14,45 nM
15,B15,39.7 nM
16,B16,33.4 nM
17,B17,92 nM
18,B18,315 nM
19,B19,95.4 nM
20,B20,86.1 nM
